Values joined by “and” are separate entries in the source; they are usually repeats but may differ in a detail not shown here. Equal values may be shown once. Blank lines part the entries; values can stand above or below the molecule they belong to.
What was measured:
[1] = target: IL-17 receptor (receptor of the first BIACORE screen of Example 8; construct not stated) (Homo sapiens (Human)) (UniProt Q96F46); experiment: BIACORE SPR; IL-17 at 25 ug/mL
[2] = target: T1, IL17RLP (Met-(-19) through Gly-270 of SEQ ID NO:2)-Fc fusion (human, UniProt Q9NRM6 18-289); experiment: BIACORE SPR (summary of Example 8)
T1 construct: also called IL17RLP-Fc; soluble IL17RLP-Fc fusion protein; not shown: human Fc domain (heavy chain constant region of IgG1)
T1 sequence: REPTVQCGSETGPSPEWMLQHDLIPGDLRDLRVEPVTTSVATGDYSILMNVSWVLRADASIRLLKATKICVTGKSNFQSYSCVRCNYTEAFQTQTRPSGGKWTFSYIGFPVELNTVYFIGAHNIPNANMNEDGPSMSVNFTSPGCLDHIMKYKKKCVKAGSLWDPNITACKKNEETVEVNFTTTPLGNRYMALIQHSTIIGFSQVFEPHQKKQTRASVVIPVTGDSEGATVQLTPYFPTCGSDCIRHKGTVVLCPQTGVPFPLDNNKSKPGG
Experimental: (§1) Binding Analyses—IL-20 protein was dialyzed against 10 mM sodium acetate buffer, pH 5 and a BIACORE™ flow cell was prepared for each receptor at densities of 7900 and 9600 RU for IL-17R and IL17RLP, respectively. Various concentrations of purified IL-20 and IL-17 (R&D Systems, Minneapolis, Minn.) in 50 microliters herpes-buffered saline (HBS) buffer were examined for receptor binding at a flow rate of 15 microliters per minute. After injection of sample the flow cell was equilibrated with HBS. Flow cells were regenerated using two 40 sec pulses of 10 mM HCl.

[3] = target: T2, IL-17 receptor (Met-1 through Asp-315)-Fc (human, UniProt Q96F46 33-315); experiment: BIACORE SPR (summary of Example 8)
T2 construct: range 1-315; also called IL17R-Fc; huIL-17R extracellular domain-Fc; not shown: human Fc domain (heavy chain constant region of IgG1)
Experimental: as §1

[4] = target: IL-17 receptor (receptor of the first BIACORE screen of Example 8; construct not stated) (Homo sapiens (Human)) (UniProt Q96F46); experiment: BIACORE SPR; conditioned CHO culture supernatant, IL-20 concentration estimated at ~25 ug/mL

T2 sequence (Q96F46 33-315 limits assumed): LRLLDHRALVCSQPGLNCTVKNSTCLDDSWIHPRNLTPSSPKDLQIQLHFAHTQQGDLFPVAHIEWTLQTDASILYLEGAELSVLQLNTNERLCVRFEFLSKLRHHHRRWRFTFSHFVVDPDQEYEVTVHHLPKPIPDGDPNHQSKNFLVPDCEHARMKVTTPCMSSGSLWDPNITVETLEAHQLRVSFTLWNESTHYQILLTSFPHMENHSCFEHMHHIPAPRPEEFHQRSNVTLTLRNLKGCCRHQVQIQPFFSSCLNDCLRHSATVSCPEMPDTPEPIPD

- SPR binding response (RU) [1]: 60 RU
Molecule: Recombinant human IL-17 (R&D Systems) (from UniProt Q16552 20-155) (ligand)

- binding result [2]: binds
- binding result [3]: binds
- SPR binding response (RU) [4]: 115 RU and 65 RU
B1: recombinant human IL-20 expressed in CHO cells (purified protein or conditioned culture supernatant) (ligand)
chain: RSPKSKRKGQGRPGPLAPGPHQVPLDLVSRMKPYARMEEYERNIEEMVAQLRNSSELAQRKCEVNLQLWMSNKRSLSPWGYSINHDPSRIPVDLPEARCLCLGCVNPFTMQEDRSMVSVPVFSQVPVRRRLCPPPPRTGPCRQRAVMETIAVGCTCIF
notes: The complete ORF was expressed in CHO cells and the protein was secreted; The preparation is heterogeneous; Residues 23-180 is the longest species observed; GenBank AF212311 is printed; also called hIL-20; huIL-20

Source: patent US20070269439A1 (published 2007)
